Test results as given in the supplement of paper PMC10724198.
± gives the standard deviation of the averaged measurements.

Test system: Saccharomyces cerevisiae
Assay: protein stability index of tFT-peptide fusion (C-terminal peptide) (PSI (0-1 scale)); higher = more stable (slower turnover)
Conditions: genetic background: wild type; temperature: 30 C
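Further: PSI is a weighted mean of sequencing reads over stability bins, variants kept only with over 10 reads, mCherry proximal and sfGFP distal, peptide attached via GGGS linker.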

QKDLVGSKSEYE
protein stability index: 0.735 ± 0.058

QKGGGGEVGAEG
protein stability index: 0.699 ± 0.066

QKIIKKIQTIVD
protein stability index: 0.697 ± 0.027

QKKKKKKKRKKT
protein stability index: 0.59 ± 0.062

QKKKKRKDKRTK
protein stability index: 0.7067 ± 0.0053

QKPKDKKKRTKE
protein stability index: 0.679 ± 0.05

QLETAIEEKNNE
protein stability index: 0.704 ± 0.0087

QLFAYFLGAVIL
protein stability index: 0.611 ± 0.023

QLGRVSRLVGVC
protein stability index: 0.537 ± 0.0081

QLLCLFSIPRSA
protein stability index: 0.7241 ± 0.0043

QLPALPPLHSSP
protein stability index: 0.6982 ± 0.0022

QLVCCAKCGAVG
protein stability index: 0.665 ± 0.035

QLVSNNCSLVMC
protein stability index: 0.532 ± 0.02

QMGGGGEVGAEG
protein stability index: 0.724 ± 0.009

QMSAATLLFSRL
protein stability index: 0.734 ± 0.029

QMTSRVPIGRLY
protein stability index: 0.696 ± 0.0035

QNKKKEKKQEIQ
protein stability index: 0.7 ± 0.042

QPGPPPRPHVQP
protein stability index: 0.676 ± 0.048

QPGTRRNNHIQV
protein stability index: 0.704 ± 0.026

QPLSFAYMPPLS
protein stability index: 0.653 ± 0.033

QPRVEYSSYWAV
protein stability index: 0.644 ± 0.034

QQKKKTKGNNEV
protein stability index: 0.661 ± 0.065

QQKKPIRKELRN
protein stability index: 0.702 ± 0.053

QREKTRSWDIET
protein stability index: 0.686 ± 0.041

QREYHENKIKYI
protein stability index: 0.563 ± 0.066

QRKYTLCVRPFP
protein stability index: 0.697 ± 0.037

QRSPNRISPADY
protein stability index: 0.798 ± 0.11

QRVIELVLISNM
protein stability index: 0.539 ± 0.043

QRWTAGTQIRPV
protein stability index: 0.706 ± 0.0086

QSKANIVEEIWI
protein stability index: 0.688 ± 0.02

QSPPDDRPPPHP
protein stability index: 0.676 ± 0.029

QSPRLTSGPQPL
protein stability index: 0.652 ± 0.022

QSQGTRLAPVTR
protein stability index: 0.729 ± 0.068

QTKKKLTQSQRT
protein stability index: 0.694 ± 0.019

QTRDFRRASYAP
protein stability index: 0.646 ± 0.019

QTVPGKNLDGDL
protein stability index: 0.714 ± 0.013

QVFITGHQLCVM
protein stability index: 0.535 ± 0.0064

QVGPSPCHPFTL
protein stability index: 0.684 ± 0.0091

QVWLLRPAPARV
protein stability index: 0.598 ± 0.12

QYQDRHIDRSGR
protein stability index: 0.657 ± 0.078

RAARGQQGGPVA
protein stability index: 0.651 ± 0.041

RADIRYCNCRGQ
protein stability index: 0.607 ± 0.045

RADLLQRGGDRI
protein stability index: 0.677 ± 0.093

RAEGGDSGVAAL
protein stability index: 0.703 ± 0.011

RAFASLALAILP
protein stability index: 0.623 ± 0.038

RAFEGGRHCRAG
protein stability index: 0.67 ± 0.049

RAGALYLGICDT
protein stability index: 0.738 ± 0.069

RAGCWFAGYSRV
protein stability index: 0.721 ± 0.078

RAGVFLPSGVAI
protein stability index: 0.663 ± 0.011

RAGVRWGGGGGG
protein stability index: 0.67 ± 0.014

RAHLVSAPPQNF
protein stability index: 0.7074 ± 0.0033

RAHSGSTCCGAQ
protein stability index: 0.698 ± 0.04

RAMWAGKGGDGW
protein stability index: 0.738 ± 0.086

RAPDHRPGRLQK
protein stability index: 0.724 ± 0.013

RAPGPGQIRLVQ
protein stability index: 0.72 ± 0.035

RARCFGGFCAIP
protein stability index: 0.724 ± 0.088

RARHDGWRHLYE
protein stability index: 0.707 ± 0.055

RASLTPSDHLFF
protein stability index: 0.766 ± 0.02

RASPPPPPPPPP
protein stability index: 0.658 ± 0.045

RASPTTILCKRQ
protein stability index: 0.678 ± 0.025

RAVLSNRVEERI
protein stability index: 0.696 ± 0.022

RAYATPIPRSAI
protein stability index: 0.655 ± 0.046

RCCGLWVDGFLL
protein stability index: 0.743 ± 0.045

RCCLDLLIFPCS
protein stability index: 0.735 ± 0.15

RCERKTGHHYRT
protein stability index: 0.637 ± 0.072

RCETHKDHESNE
protein stability index: 0.725 ± 0.014

RCRGPVYIPPGT
protein stability index: 0.654 ± 0.027

RCRGTEGWLDSG
protein stability index: 0.63 ± 0.009

RDAPLGRRLRPV
protein stability index: 0.678 ± 0.021

RDGDVRTLMGWD
protein stability index: 0.732 ± 0.037

RDGSNSNGKKKK
protein stability index: 0.6 ± 0.051

RDLSEGRSPLGI
protein stability index: 0.661 ± 0.081

RDPSIVDHTVVT
protein stability index: 0.735 ± 0.041

RDSLGGRSMHGW
protein stability index: 0.682 ± 0.029

RDVWPFTGKRAL
protein stability index: 0.672 ± 0.014

REEREISGNLLV
protein stability index: 0.7899 ± 0.0075

REGKGREQGRKK
protein stability index: 0.616 ± 0.053

REGKIVNNKNEN
protein stability index: 0.687 ± 0.077

REGVELTRPVTC
protein stability index: 0.696 ± 0.041

REKDMIKSGIKS
protein stability index: 0.724 ± 0.02

REMDDRLEQSVP
protein stability index: 0.743 ± 0.017

REPPFFRLSPQV
protein stability index: 0.722 ± 0.042

REQKTKDKKKRQ
protein stability index: 0.703 ± 0.024

RERNNISVKGKL
protein stability index: 0.679 ± 0.049

RERPHSDYLACH
protein stability index: 0.691 ± 0.026

RESTKNETSGKK
protein stability index: 0.632 ± 0.04

REVIGFLSYWKG
protein stability index: 0.711 ± 0.14

RFCRAFSGALSR
protein stability index: 0.805 ± 0.021

RFDGLTTALDSV
protein stability index: 0.669 ± 0.04

RFFPPPARPSPF
protein stability index: 0.732 ± 0.025

RFLMGYEVNCAV
protein stability index: 0.548 ± 0.015

RFMAFGDKEILR
protein stability index: 0.662 ± 0.033

RFPLCLHLPLLL
protein stability index: 0.55 ± 0.012

RFPLSLRIPLPK
protein stability index: 0.63 ± 0.034

RFSPARPASPPP
protein stability index: 0.687 ± 0.036

RFWGWCSAVLSS
protein stability index: 0.622 ± 0.056

RGAHVTRPGTRD
protein stability index: 0.66 ± 0.034

RGALGVVWAGLD
protein stability index: 0.638 ± 0.021

RGARGIGVRLRV
protein stability index: 0.651 ± 0.026

RGASDYARMSAF
protein stability index: 0.7047 ± 0.0037

RGDGAGQARGVV
protein stability index: 0.684 ± 0.053

RGDGVRGGKNGR
protein stability index: 0.689 ± 0.034

RGEVWVEVALGV
protein stability index: 0.642 ± 0.021

RGFSLSCCERSI
protein stability index: 0.749 ± 0.026

RGGAGRRWGRGK
protein stability index: 0.631 ± 0.073

RGGGGGGGAAGS
protein stability index: 0.657 ± 0.037

RGGGGRGFAGRK
protein stability index: 0.608 ± 0.038

RGGGLGGLRSRA
protein stability index: 0.823 ± 0.081

RGGGRGVWGHVV
protein stability index: 0.607 ± 0.0063

RGGGWVLEVLLG
protein stability index: 0.5195 ± 0.0024

RGGWGGGDCVGA
protein stability index: 0.688 ± 0.09

RGGWRVTNKKNI
protein stability index: 0.645 ± 0.023

RGKSPPPSSPPL
protein stability index: 0.684 ± 0.024

RGLRRIPDAPPH
protein stability index: 0.757 ± 0.028

RGLSCAAYFSGA
protein stability index: 0.727 ± 0.028

RGPPPTSPPSPP
protein stability index: 0.664 ± 0.013

RGPSSPTPRPAA
protein stability index: 0.77 ± 0.13

RGRGRGGPLSGG
protein stability index: 0.731 ± 0.017

RGRGRISGSWGT
protein stability index: 0.718 ± 0.013

RGRGRVRPRRKR
protein stability index: 0.6831 ± 0.0011

RGRLVVGAGRED
protein stability index: 0.697 ± 0.049

RGRQRSDPPTRL
protein stability index: 0.717 ± 0.061

RGRWLKNARLSM
protein stability index: 0.634 ± 0.065

RGRWRVGWGVGD
protein stability index: 0.67 ± 0.017

RGRWVDWLSFTF
protein stability index: 0.7278 ± 0.0022

RGSPFTAWSVLR
protein stability index: 0.753 ± 0.019

RGSPPDPRGRAG
protein stability index: 0.685 ± 0.074

RGSRFVAGGGSV
protein stability index: 0.702 ± 0.038

RGSVSCLQLIGC
protein stability index: 0.651 ± 0.034

RGSYLAFRVYGP
protein stability index: 0.648 ± 0.03

RGVCVVGGCWLV
protein stability index: 0.609 ± 0.016

RGVGEGFRAGCG
protein stability index: 0.672 ± 0.0098

RGVIWLVCGGPC
protein stability index: 0.54 ± 0.032

RGVVGFVGVVRE
protein stability index: 0.6445 ± 0.0027

RGVWWWWGVAGA
protein stability index: 0.749 ± 0.17

RGWGGGRKVSVG
protein stability index: 0.652 ± 0.036

RGWKDQYIDADR
protein stability index: 0.689 ± 0.012

RGWRYRAEGFRG
protein stability index: 0.663 ± 0.022

RHGRDNPSGRLN
protein stability index: 0.6902 ± 0.0046

RHRFDHWGPGPW
protein stability index: 0.72 ± 0.055

RHVCPLLYPCSS
protein stability index: 0.635 ± 0.036

RIAARAIISRGG
protein stability index: 0.657 ± 0.021

RILSCGCVCFVM
protein stability index: 0.702 ± 0.031

RIMFVGYPLDWL
protein stability index: 0.674 ± 0.041

RIPSDLTLNPRG
protein stability index: 0.669 ± 0.05

RISWLKEATAIK
protein stability index: 0.689 ± 0.019
